The target of experiment [1] is T1, ECF27_4265.
T1 chain: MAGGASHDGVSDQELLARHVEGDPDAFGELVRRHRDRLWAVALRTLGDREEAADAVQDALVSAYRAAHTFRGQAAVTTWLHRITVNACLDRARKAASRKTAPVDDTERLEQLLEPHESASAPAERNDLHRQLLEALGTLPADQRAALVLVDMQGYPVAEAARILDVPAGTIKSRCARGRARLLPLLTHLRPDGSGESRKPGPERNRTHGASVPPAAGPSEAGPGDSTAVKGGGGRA

For experiment [2], the target named is T2, ECF34_1384.
T2 chain: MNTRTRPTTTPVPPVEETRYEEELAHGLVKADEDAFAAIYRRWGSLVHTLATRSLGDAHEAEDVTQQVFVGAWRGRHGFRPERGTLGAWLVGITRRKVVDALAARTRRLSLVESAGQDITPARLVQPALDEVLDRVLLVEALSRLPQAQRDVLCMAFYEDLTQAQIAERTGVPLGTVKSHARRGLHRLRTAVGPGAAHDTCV

The target of experiment [3] is ECF26_4464.
Experiment [4] has as its target T3, ECF25_1645.
T3 chain: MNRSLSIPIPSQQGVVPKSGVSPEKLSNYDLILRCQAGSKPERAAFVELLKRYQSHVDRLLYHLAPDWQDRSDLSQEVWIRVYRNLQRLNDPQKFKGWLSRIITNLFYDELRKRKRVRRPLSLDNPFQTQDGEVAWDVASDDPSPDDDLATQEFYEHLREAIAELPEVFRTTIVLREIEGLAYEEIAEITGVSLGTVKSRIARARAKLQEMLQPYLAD

The target of experiment [5] is T4, ECF02_915.
T4 chain: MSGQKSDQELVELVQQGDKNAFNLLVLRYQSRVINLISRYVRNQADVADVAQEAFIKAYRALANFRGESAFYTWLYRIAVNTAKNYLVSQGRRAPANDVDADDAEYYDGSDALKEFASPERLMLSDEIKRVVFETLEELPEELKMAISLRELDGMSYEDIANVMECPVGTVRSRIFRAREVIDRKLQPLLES

Experiment [6] addresses T5, ECF12_807.
T5 chain: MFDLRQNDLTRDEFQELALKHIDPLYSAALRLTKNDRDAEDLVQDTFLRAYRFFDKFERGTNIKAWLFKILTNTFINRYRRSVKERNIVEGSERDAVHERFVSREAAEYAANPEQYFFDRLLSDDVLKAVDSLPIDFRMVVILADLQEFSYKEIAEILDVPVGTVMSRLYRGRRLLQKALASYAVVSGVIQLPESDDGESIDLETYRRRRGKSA

Experiment [7] addresses T6, ECF02_2817.
T6 chain: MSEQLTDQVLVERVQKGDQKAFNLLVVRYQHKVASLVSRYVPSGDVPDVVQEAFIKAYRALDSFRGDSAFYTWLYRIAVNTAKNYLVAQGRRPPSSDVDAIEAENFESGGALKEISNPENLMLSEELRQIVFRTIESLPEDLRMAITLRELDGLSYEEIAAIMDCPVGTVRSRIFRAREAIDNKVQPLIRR

Experiment [8] concerns the target T7, ECF16_973.
T7 chain: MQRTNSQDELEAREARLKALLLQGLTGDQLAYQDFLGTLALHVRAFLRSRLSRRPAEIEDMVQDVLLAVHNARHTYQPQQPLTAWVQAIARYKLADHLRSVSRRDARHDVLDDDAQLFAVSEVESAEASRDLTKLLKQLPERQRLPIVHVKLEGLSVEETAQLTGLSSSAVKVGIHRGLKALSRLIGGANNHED

For experiment [9], the target named is T8, ECF11_987.
T8 chain: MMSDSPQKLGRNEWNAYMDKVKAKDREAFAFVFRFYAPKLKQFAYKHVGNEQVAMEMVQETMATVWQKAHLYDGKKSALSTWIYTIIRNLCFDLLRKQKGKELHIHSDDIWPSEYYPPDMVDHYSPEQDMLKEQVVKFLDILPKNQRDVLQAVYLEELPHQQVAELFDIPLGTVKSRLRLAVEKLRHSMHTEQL

Experiment [10] addresses T9, ECF01_3473.
T9 chain: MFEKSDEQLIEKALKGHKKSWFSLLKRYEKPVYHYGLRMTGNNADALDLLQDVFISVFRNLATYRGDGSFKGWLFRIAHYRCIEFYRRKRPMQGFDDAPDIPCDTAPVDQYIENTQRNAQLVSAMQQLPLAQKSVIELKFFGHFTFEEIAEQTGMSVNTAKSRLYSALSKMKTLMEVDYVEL

Experiment [11] has as its target T10, ECF30_35.
T10 chain: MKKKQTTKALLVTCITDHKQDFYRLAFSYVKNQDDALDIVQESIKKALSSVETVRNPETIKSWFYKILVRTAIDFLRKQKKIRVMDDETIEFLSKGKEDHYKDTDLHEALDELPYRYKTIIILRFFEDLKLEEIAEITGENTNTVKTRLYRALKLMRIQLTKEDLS

Experiment [12] concerns the target T11, ECF03_1198.
T11 chain: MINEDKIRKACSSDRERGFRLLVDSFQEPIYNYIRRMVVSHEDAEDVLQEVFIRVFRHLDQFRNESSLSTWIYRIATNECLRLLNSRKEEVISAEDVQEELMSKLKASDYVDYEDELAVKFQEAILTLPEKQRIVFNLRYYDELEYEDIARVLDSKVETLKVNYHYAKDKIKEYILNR

The target in experiment [13] is T12, ECF22_4450.
T12 chain: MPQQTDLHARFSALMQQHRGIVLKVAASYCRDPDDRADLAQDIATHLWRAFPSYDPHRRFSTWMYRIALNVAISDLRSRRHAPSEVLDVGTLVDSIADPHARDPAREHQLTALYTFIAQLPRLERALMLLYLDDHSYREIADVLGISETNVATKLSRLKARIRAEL

Experiment [14] has as its target T13, ECF03_1244.
T13 chain: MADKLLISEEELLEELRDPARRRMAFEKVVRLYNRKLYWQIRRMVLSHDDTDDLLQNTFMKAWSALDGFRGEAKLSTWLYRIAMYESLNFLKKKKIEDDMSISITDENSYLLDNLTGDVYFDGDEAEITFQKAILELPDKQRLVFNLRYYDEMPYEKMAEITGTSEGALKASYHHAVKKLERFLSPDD

Here are results for six molecules from paper PMC3817407.

B1: AS16_3622 (protein)
chain: MMKTDELISLLATAEGPVDRHALARRLGLALLAGLLGALLLTVALYGVRSDLAEVARTPLFWAKVALPTSLALLGLWLTQRLARPGVRGGALWGLLGVPLLLVWLGAAISLFGAPPEARADLIFGRTWRTCALNITLLSTPVFIAVFWALRGLAPTRLRQAGAAGGLLAGSTATLVYCLHCPEMGVPFWGLWYLLGMLVPTLLGAVLGPRLLRW
Turning to B1, the fold repression was 1.45 in experiment [1]; 2.8 in experiment [2]; 8.91 in experiment [3]; 1.53 in experiment [4]; 1.26 in experiment [5]; 7.12 in experiment [6]. Further, the fold repression in [7] stood at 1.37; in [8] it was 131; in [9], 4.23; in experiment [10], 2.63; in [11] it was 0.992; in [12], 2.71. Besides, the fold repression in experiment [13] turned out to be 4.51; in experiment [14], 2.09.

B2: AS15_524 (protein)
chain: MNFGVEDMIEHVPMEDKRKGAAALDEARLRQQAIGVKLRQMFDEVVNEPVPDEFLAILRKAERPAGGE
For the molecule B2, the fold repression in experiment [1] worked out at 4.51; in experiment [2], 5.15; in experiment [3] it was 28.2; in [4], 3.69; in [5] it was 2.67; in experiment [6], 5.51. Besides, the fold repression in experiment [7] came to 2.65; in experiment [8], 4.98; in experiment [9], 3.74; in [10] it was 9.89; in experiment [11], 5.98; in experiment [12], 3.92. The fold repression in [13] amounted to 11.1; in experiment [14], 2.96.

B3: AS02_915 (protein)
chain: MEKTGQEWVSASVDGETDRQTLAELAADTDSHAKWQRYHLMGDAMRDELPQAMPLDLSARIAAALEDEPTILAPKVEREATQAPSRAVVVPFMRQLGQYGIAAAVALMAVVGVQNYQSTQDDAPLPVLNTRPLVGTATPVSLQTGPVANQNQGNANDQLLEQRRRINAYLQDHMLQQRLNTGAVVDDNSEVTPIPVNR
Consider B3, for which the fold repression in [1] is 2.08; in [2], 3.28; in experiment [3], 3.42; in experiment [4] it was 1.99; in experiment [5], 29.2; in [6], 9.79. For the same molecule, the fold repression is 5.22 in [7]; 3.34 in [8]; 3.88 in experiment [9]; 5.57 in experiment [10]; 2.79 in experiment [11]; 3.28 in experiment [12]. In addition, the fold repression in [13] turned out to be 4.13; in experiment [14] it was 3.01.

B4: AS15_436 (protein)
chain: MAQSTEPKASPQEATAKGGDNTKGKSRKELQQQIDENLRRVYEEALVQEVPDRFAMLLDQLRQKGTGK
For B4, the fold repression in experiment [1] was 2.89; in experiment [2], 2.2; in experiment [3] it was 24.7; in experiment [4], 1.87; in [5], 1.55; in [6], 5.3. For the same molecule, the fold repression in [7] amounted to 1.58; in [8] it was 3.01; in [9], 2.8; in experiment [10], 4.77; in [11], 2.1; in [12], 3.84. The fold repression in [13] was 4.63; in experiment [14] it was 1.54.

B5: AS16_973 (protein)
chain: MKTDDLIALLAAGEGPVPRHAVGRRMAVAALGGLTAALLLTITLYGVRSDITEVAQTPLFWGKVAFPTSLALIGLWLTSRLARPGGKGAAGWKMLGLPLLLVWCGAAVSIAGAPVDARADLLFGRTWRTCALNIALLSVPAFVTVFWALKGLAPTRLRLAGAAGGLLAGSSATVAYCLHCPEMGVPFWGVWYVLGMLVPTVLGAWWGPRMLRW
With B5, the fold repression in [1] was 0.412; in [2], 0.757; in experiment [3] it was 1.46; in [4] it was 0.538; in experiment [5], 0.403; in experiment [6], 0.905. Also, the fold repression was found to be 0.448 in experiment [7]; 58.6 in experiment [8]; 1.32 in experiment [9]; 0.602 in [10]; 0.463 in [11]; 0.72 in experiment [12]. In addition, the fold repression in experiment [13] was found to be 2.62; in experiment [14], 0.783.

B6: AS20_992 (protein)
chain: MTPERFVHLADAYGADLQRWPSAERAAAQALLDCGDAQAVAALRQAHWLDSQLDRYQVPAPSPALAQRIIAAAQQPGAPFWSRYAGWLASLGWVGVGLTGVAAGMLAVALSLPLSTSAEALPSVFDQSDAEFVLSINAEEAEQ
As for B6, the fold repression in experiment [1] is 1.1; in experiment [2], 1.64; in [3] it was 2.04; in experiment [4], 1.3; in experiment [5], 1.93; in experiment [6], 1.4. Moreover, the fold repression stood at 1.74 in experiment [7]; 1.7 in [8]; 2.81 in experiment [9]; 2.3 in experiment [10]; 1.61 in experiment [11]; 1.53 in experiment [12]. The fold repression was determined as 2.29 in [13] and 1.39 in experiment [14].
